{"source": "paper PMC10827748", "target": "Smac/DIABLO, endogenous (human (endogenous in HEK293F and HEK293T))", "assay": "cryo-EM structure; FLAG-BIRC6 purified from HEK293F, cross-linked with 0.01% glutaraldehyde; global map 3.6 Å; a class with endogenous co-purified Smac in the central cavity at 4.7 Å", "data": [{"substance": "Smac/DIABLO, endogenous (natural protein)", "values": [{"measurement": "stoichiometry N", "result": 2}]}]}
